Measurements: KR20120084755A (dated 2012)

Tests used:
RSV A2 바이러스의 F 단백질 = RSV A2 바이러스의 F 단백질 (Respiratory Syncytial Virus (RSV), …, UniProt P03420 26-574); assay: cell-based or functional assay
[1] = molecular target: T1, RSV 긴 균주(Long strain)로부터의 HIS 태그 포함 재조합 F 단백질 (Respiratory Syncytial Virus (RSV), Long …, UniProt P12568 26-524); assay: direct ELISA, purified HIS-tagged F on Ni-NTA HisSorp plates (Fig. 3b right)
T1 construct: not shown: poly-HIS tag
T1 sequence (P12568 26-524): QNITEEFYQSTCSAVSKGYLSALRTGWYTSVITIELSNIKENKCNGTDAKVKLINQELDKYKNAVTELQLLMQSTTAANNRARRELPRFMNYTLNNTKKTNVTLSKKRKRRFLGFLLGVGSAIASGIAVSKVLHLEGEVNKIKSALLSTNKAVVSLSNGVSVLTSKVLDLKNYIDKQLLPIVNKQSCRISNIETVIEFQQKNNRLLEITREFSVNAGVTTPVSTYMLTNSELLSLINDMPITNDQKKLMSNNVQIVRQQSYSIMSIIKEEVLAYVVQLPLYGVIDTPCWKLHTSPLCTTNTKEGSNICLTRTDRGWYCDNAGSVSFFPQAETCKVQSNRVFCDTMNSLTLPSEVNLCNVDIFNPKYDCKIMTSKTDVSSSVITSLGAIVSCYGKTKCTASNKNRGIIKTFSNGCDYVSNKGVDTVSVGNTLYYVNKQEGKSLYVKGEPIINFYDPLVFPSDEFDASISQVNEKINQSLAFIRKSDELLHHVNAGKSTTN

Sequence of RSV A2 바이러스의 F 단백질 (P03420 26-574): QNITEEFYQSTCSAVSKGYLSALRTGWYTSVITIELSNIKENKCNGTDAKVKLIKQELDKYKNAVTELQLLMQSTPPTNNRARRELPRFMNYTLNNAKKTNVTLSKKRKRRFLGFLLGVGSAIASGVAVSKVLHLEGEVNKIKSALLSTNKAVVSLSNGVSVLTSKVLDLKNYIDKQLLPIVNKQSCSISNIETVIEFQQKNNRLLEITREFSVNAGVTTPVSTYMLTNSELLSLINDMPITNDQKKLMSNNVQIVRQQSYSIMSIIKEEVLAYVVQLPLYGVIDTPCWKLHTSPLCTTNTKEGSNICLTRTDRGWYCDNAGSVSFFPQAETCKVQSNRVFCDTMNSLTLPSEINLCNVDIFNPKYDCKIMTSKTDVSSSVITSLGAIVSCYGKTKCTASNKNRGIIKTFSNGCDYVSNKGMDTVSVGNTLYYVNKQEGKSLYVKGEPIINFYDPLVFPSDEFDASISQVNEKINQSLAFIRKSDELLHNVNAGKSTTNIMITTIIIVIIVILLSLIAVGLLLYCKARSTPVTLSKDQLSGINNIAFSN

B1: AM22 (antibody, V domains shown)
VH: QVQLVQSGAEVKKPGATVKVSCKISGHTLIKLSIHWVRQAPGKGLEWMGGYEGEVDEIFYAQKFQHRLTVIADTATDTVYMELGRLTSDDTAVYFCGTLGVTVTEAGLGIDDYWGQGTLVTVSS
VL: EIVLTQSPGTLSLSPGERATLSCRASQIVSRNHLAWYQQKPGQAPRLLIFGASSRATGIPVRFSGSGSGTDFTLTINGLAPEDFAVYYCLSSDSSIFTFGPGTKVDFK
notes: also called 재조합 AM22 mAb; AM22 항체
IC50, RSV A2 neutralisation on HEp2 cells (standard TCID50 culture assay) (RSV A2 바이러스의 F 단백질): 1.15 ng/㎖
binding result [1]: no binding
